# From patent publication US20250312499A1, “KISSPEPTIN RECEPTOR (KISS1R) TARGETED THERAPEUTICS AND USES THEREOF” (priority 2024, published 2025)
# Numbered stars: 1 amine (or outer) side, 2 acyl side, 3 side chain; on linkers, the order of the positions; unused ones are H or OH. Square brackets hold non-standard residues; d marks the D form. Ends that are not written are not given here. * marks the point of attachment. X2 = 4‑amino‑1‑((3-fluoro-4-methylbenzyl)glycyl)piperidine‑4‑carboxylic acid, Cc1ccc(CN(CC(=O)N2CCC(N[*:1])(C(=O)[*:2])CC2)[*:3])cc1F; X7 = 4‑amino‑1‑(N-methylcarbamimidoyl)piperidine‑4‑carboxylic acid, CNC(=N)N1CCC(N[*:1])(C(=O)[*:2])CC1; Apc(4-OMe) = 4-aminopiperidine-4-carboxylic acid residue N1-acylated by a methoxy-bearing benzylglycyl; DOTA = O=C(O)CN1CCN(CC(=O)O)CCN(CC(=O)*)CCN(CC(=O)O)CC1; Ala(9-anthryl) = N[C@@H](Cc1c2ccccc2cc2ccccc12)C(=O)O; Api(1-amidino) = N=C(N)N1CCC(N)(C(=O)O)CC1; HO(CH2CH2O)2CH2CH2CO = O=C(CCOCCOCCO)*; d2Nal = N[C@H](Cc1ccc2ccccc2c1)C(=O)O; 4Pal = N[C@@H](Cc1ccncc1)C(=O)O; Nle = CCCC[C@H](N)C(=O)O; APM = not defined here; Ahx = NCCCCCC(=O)O; azaGly = NNC(=O)O; βAla = NCCC(=O)O
# Target: human kisspeptin receptor (KISS1R) (human) (UniProt Q969F8)
# Sequence (Q969F8 whole entry): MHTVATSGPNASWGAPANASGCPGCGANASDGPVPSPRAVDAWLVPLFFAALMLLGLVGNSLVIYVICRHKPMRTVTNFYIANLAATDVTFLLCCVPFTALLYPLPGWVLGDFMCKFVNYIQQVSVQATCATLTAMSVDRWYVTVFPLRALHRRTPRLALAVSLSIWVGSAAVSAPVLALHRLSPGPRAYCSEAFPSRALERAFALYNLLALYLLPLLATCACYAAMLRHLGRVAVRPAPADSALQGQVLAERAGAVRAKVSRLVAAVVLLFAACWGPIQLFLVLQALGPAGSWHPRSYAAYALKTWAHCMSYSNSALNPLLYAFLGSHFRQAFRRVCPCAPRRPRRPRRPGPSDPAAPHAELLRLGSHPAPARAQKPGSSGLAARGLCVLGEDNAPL
# Assay: radioligand competition, hKISS1R membranes; legend: C is >100 nM
row,Ki,Binder
1,> 100 nM,{DOTA-Ahx}-[dY][d2Nal]NTF[azaGly]L[X7][dW]-NH2 (SMILES CNC(=N)N1CCC(NC(=O)[C@H](CC(C)C)NC(=O)NNC(=O)[C@H](Cc2ccccc2)NC(=O)[C@@H](NC(=O)[C@H](CC(N)=O)NC(=O)[C@@H](Cc2ccc3ccccc3c2)NC(=O)[C@@H](Cc2ccc(O)cc2)NC(=O)CCCCCNC(=O)CN2CCN(CC(=O)O)CCN(CC(=O)O)CCN(CC(=O)O)CC2)[C@@H](C)O)(C(=O)N[C@H](Cc2c[nH]c3ccccc23)C(N)=O)CC1) [Compound 319]
2,> 100 nM,{DOTA}-[dY][Ala(9-anthryl)]NTF[azaGly][Nle][Api(1-amidino)][4Pal]-NH2 (SMILES CCCC[C@H](NC(=O)NNC(=O)[C@H](Cc1ccccc1)NC(=O)[C@@H](NC(=O)[C@H](CC(N)=O)NC(=O)[C@H](Cc1c2ccccc2cc2ccccc12)NC(=O)[C@@H](Cc1ccc(O)cc1)NC(=O)CN1CCN(CC(=O)O)CCN(CC(=O)O)CCN(CC(=O)O)CC1)[C@@H](C)O)C(=O)NC1(C(=O)N[C@@H](Cc2ccncc2)C(N)=O)CCN(C(=N)N)CC1) [Compound 123]
3,> 100 nM,{DOTA-Ahx}-[dY][d2Nal]NTF[azaGly]L[4‑amino‑1‑(((tetrahydro-2H-thiopyran-4-yl)methyl)glycyl)piperidine‑4‑carboxylic acid][dW]-NH2 [Compound 375]
4,> 100 nM,{DOTA-Ahx}-[dY][d2Nal]NTF[azaGly]L[4‑amino‑1‑((pyridin-4-ylmethyl)glycyl)piperidine‑4‑carboxylic acid][dW]-NH2 [Compound 370]

# Target: human kisspeptin receptor (KISS1R) (human), Q969F8
# Sequence (Q969F8 whole entry): as above
# Assay: as above
row,Binder,Ki
1,{DOTA-APM}-F[azaGly]L[X2]H-NH2 (reading uncertain) [Compound 248],> 100 nM
2,{HO(CH2CH2O)2CH2CH2CO}-K(DOTA)ETF[azaGly]L[X2][4Pal]-NH2 (SMILES Cc1ccc(CNCC(=O)N2CCC(NC(=O)[C@H](CC(C)C)NC(=O)NNC(=O)[C@H](Cc3ccccc3)NC(=O)[C@@H](NC(=O)[C@H](CCC(=O)O)NC(=O)[C@H](CCCCNC(=O)CN3CCN(CC(=O)O)CCN(CC(=O)O)CCN(CC(=O)O)CC3)NC(=O)CCOCCOCCO)[C@@H](C)O)(C(=O)N[C@@H](Cc3ccncc3)C(N)=O)CC2)cc1F) [Compound 252],> 100 nM

# Further lines, results first:
row,Ki,Binder
1,> 100 nM,{DOTA}-[βAla][dN][dN][dK][dE][dN]F[azaGly]L[X2]W-NH2 (SMILES Cc1ccc(CNCC(=O)N2CCC(NC(=O)[C@H](CC(C)C)NC(=O)NNC(=O)[C@H](Cc3ccccc3)NC(=O)[C@@H](CC(N)=O)NC(=O)[C@@H](CCC(=O)O)NC(=O)[C@@H](CCCCN)NC(=O)[C@@H](CC(N)=O)NC(=O)[C@@H](CC(N)=O)NC(=O)CCNC(=O)CN3CCN(CC(=O)O)CCN(CC(=O)O)CCN(CC(=O)O)CC3)(C(=O)N[C@@H](Cc3c[nH]c4ccccc34)C(N)=O)CC2)cc1F) [Compound 16]
2,> 100 nM,ENTF[azaGly][dL][Apc(4-OMe)]F [Compound 239]
3,> 100 nM,{DOTA-Ahx}-TNRNFL[Api(1-amidino)]F-NH2 (SMILES CC(C)C[C@H](NC(=O)[C@H](Cc1ccccc1)NC(=O)[C@H](CC(N)=O)NC(=O)[C@H](CCCNC(=N)N)NC(=O)[C@H](CC(N)=O)NC(=O)[C@@H](NC(=O)CCCCCNC(=O)CN1CCN(CC(=O)O)CCN(CC(=O)O)CCN(CC(=O)O)CC1)[C@@H](C)O)C(=O)NC1(C(=O)N[C@@H](Cc2ccccc2)C(N)=O)CCN(C(=N)N)CC1) [Compound 199]
4,> 100 nM,{DOTA}-F[azaGly]L[X2]W-NH2 (SMILES Cc1ccc(CNCC(=O)N2CCC(NC(=O)[C@H](CC(C)C)NC(=O)NNC(=O)[C@H](Cc3ccccc3)NC(=O)CN3CCN(CC(=O)O)CCN(CC(=O)O)CCN(CC(=O)O)CC3)(C(=O)N[C@@H](Cc3c[nH]c4ccccc34)C(N)=O)CC2)cc1F) [Compound 49]
5,> 100 nM,{DOTA}-[βAla][dN][dN][dE][dE][dN]F[azaGly]L[X2]W-NH2 (SMILES Cc1ccc(CNCC(=O)N2CCC(NC(=O)[C@H](CC(C)C)NC(=O)NNC(=O)[C@H](Cc3ccccc3)NC(=O)[C@@H](CC(N)=O)NC(=O)[C@@H](CCC(=O)O)NC(=O)[C@@H](CCC(=O)O)NC(=O)[C@@H](CC(N)=O)NC(=O)[C@@H](CC(N)=O)NC(=O)CCNC(=O)CN3CCN(CC(=O)O)CCN(CC(=O)O)CCN(CC(=O)O)CC3)(C(=O)N[C@@H](Cc3c[nH]c4ccccc34)C(N)=O)CC2)cc1F) [Compound 15]
6,> 100 nM,{HO(CH2CH2O)2CH2CH2CO}-K(DOTA)TF[azaGly]L[X2][4Pal]-NH2 (SMILES Cc1ccc(CNCC(=O)N2CCC(NC(=O)[C@H](CC(C)C)NC(=O)NNC(=O)[C@H](Cc3ccccc3)NC(=O)[C@@H](NC(=O)[C@H](CCCCNC(=O)CN3CCN(CC(=O)O)CCN(CC(=O)O)CCN(CC(=O)O)CC3)NC(=O)CCOCCOCCO)[C@@H](C)O)(C(=O)N[C@@H](Cc3ccncc3)C(N)=O)CC2)cc1F) [Compound 251]
7,> 100 nM,{DOTA-Ahx}-F[azaGly]L[X7]W-NH2 (SMILES CNC(=N)N1CCC(NC(=O)[C@H](CC(C)C)NC(=O)NNC(=O)[C@H](Cc2ccccc2)NC(=O)CCCCCNC(=O)CN2CCN(CC(=O)O)CCN(CC(=O)O)CCN(CC(=O)O)CC2)(C(=O)N[C@@H](Cc2c[nH]c3ccccc23)C(N)=O)CC1) [Compound 189]
8,> 100 nM,{DOTA-Ahx}-FGL[Api(1-amidino)]W-NH2 (SMILES CC(C)C[C@H](NC(=O)CNC(=O)[C@H](Cc1ccccc1)NC(=O)CCCCCNC(=O)CN1CCN(CC(=O)O)CCN(CC(=O)O)CCN(CC(=O)O)CC1)C(=O)NC1(C(=O)N[C@@H](Cc2c[nH]c3ccccc23)C(N)=O)CCN(C(=N)N)CC1) [Compound 3]
